This assay deals with pooled human IgG (human). The assay can be described thus: cell-based or functional assay.

Substitutions are numbered along the chain they refer to.

B1: VRT-18 (Fc fusion)
chain: QITSVWTKGVTPLTPEQFRYNNEDVIHAPYLAHQGWYDITKAFDGKDNLLCGAATAGNMLHWWFDQNKTEIEAYLSKHPEKQKIIFNNQELFDLKAAIDTKDSQTNSQLFNYFRDKAFPGLSARQLGVFPDLVLDMFINGYYLNVFKTQSTDVNRPYQDKDKRGGIFDAVFTRGVQTTLLTARHDLKNKGLNDISTIIKQELTEGRALALSHTYANVRISHVINLWGADFNAEGNLEAIYVTDSDANASIGMKKYFVGINAHGHVAISAKKIEGENIGAQVLGLFTLSSGKDIWQKLSDKTHTCPPCPAPEAAGAPSVFLFPPKPKDTLMISRTPEVTCVVVDVSHEDPEVKFNWYVDGVEVHNAKTKPREEQQNSTYRVVSVLTVLHQDWLNGKEYKCKVSNKALKAPIEKTISKAKGQPREPQVYTLPPSRDELTKNQVSLTCLVKGFYPSDIAVEWESNGQPENNYKTTPPVLDSDGSFFLYSKLTVDKSRWQQGNVFSCSVMHEALHNHYTQKSLSLSPG
B1 returned an Enzyme Activity Endpoint Assay: Fab′2 of 0 ng/µL, an Enzyme Activity Endpoint Assay: Fc of 4 ng/µL, an Enzyme Activity Endpoint Assay: IgG of 995 ng/µL and an Enzyme Activity Endpoint Assay: scIgG of 9 ng/µL.

B2: VRT-12 (Fc fusion)
chain: QITSVWTKGVTPLTPEQFRYNNEDVIHAPYLANQGWYDITKTFNGKDNLLCGAATAGNMLHWWFDQNKTEIEAYLKKHPEKQKIIFNNQELFDLKAAIDTKDSQTNSQLFNYFRDKAFPNLSARQLGVMPDLVLDMFINGYYLNVFKTQSTDVNRPYQDKDKRGGIFDAVFTRGDQTTLLTARHDLKNKGLNEISTLIKQELTEGKALALSHTYANVSISHVINLWGADFNAEGNLEAIYVTDSDSNASIGMKKYFVGVNAHGKVAISAKKIEGENIGAQVLGLFTLSSGKDIWQKLSDKTHTCPPCPAPEAAGAPSVFLFPPKPKDTLMISRTPEVTCVVVDVSHEDPEVKFNWYVDGVEVHNAKTKPREEQQNSTYRVVSVLTVLHQDWLNGKEYKCKVSNKALKAPIEKTISKAKGQPREPQVYTLPPSRDELTKNQVSLTCLVKGFYPSDIAVEWESNGQPENNYKTTPPVLDSDGSFFLYSKLTVDKSRWQQGNVFSCSVMHEALHNHYTQKSLSLSPG
For the molecule B2, the Enzyme Activity Endpoint Assay: Fab′2 came out at 0 ng/µL, the Enzyme Activity Endpoint Assay: Fc is 101 ng/µL, the Enzyme Activity Endpoint Assay: IgG worked out at 747 ng/µL and the Enzyme Activity Endpoint Assay: scIgG came to 64 ng/µL.

B3: VRT-16 (Fc fusion)
chain: VTSVWTKGVTPPANFTQGEDVFHAPYVANQGWYDITKTFNGKDNLLCGAATAGNMLHWWFDQNKDQIKRYLEEHPEKQKINFNGEQLFDVKEAIDTKNHQLDSKLFEYFKEKAFPYLSTKHLGVFPDHVIDMFINGYRLSLTNHGPTPVKEGSKDKRGGIFDAVFTRGVQSKLLTSRHDFKEKNLKEISDLIKKELTEGKALGLSHTYANVRINHVINLWGADFDSNGNLKAIYVTDSDTNASIGMKKYFVGVNSAGKVAISAKEIKEDNIGAQVLGLFTLSTGQDSWNQTNDKTHTCPPCPAPEAAGAPSVFLFPPKPKDTLMISRTPEVTCVVVDVSHEDPEVKFNWYVDGVEVHNAKTKPREEQQNSTYRVVSVLTVLHQDWLNGKEYKCKVSNKALKAPIEKTISKAKGQPREPQVYTLPPSRDELTKNQVSLTCLVKGFYPSDIAVEWESNGQPENNYKTTPPVLDSDGSFFLYSKLTVDKSRWQQGNVFSCSVMHEALHNHYTQKSLSLSPG
Molecule B3 displayed an Enzyme Activity Endpoint Assay: Fab′2 of 0 ng/µL, an Enzyme Activity Endpoint Assay: Fc of 130 ng/µL, an Enzyme Activity Endpoint Assay: IgG of 682 ng/µL and an Enzyme Activity Endpoint Assay: scIgG of 91 ng/µL.

B4: VRT-20 (Fc fusion)
chain: B3 chain with G41R, N83K, N241E, S255K
Consider B4, for which the Enzyme Activity Endpoint Assay: Fab′2 turned out to be 0 ng/µL, the Enzyme Activity Endpoint Assay: Fc was 5 ng/µL, the Enzyme Activity Endpoint Assay: IgG was 981 ng/µL and the Enzyme Activity Endpoint Assay: scIgG amounted to 12 ng/µL.

B5: VRT-17 (Fc fusion)
chain: VTSVWTKGVTPPAKFTQGEDVFHAPYVANQGWYDITKTFNGKDNLLCGAATAGNMLHWWFDQNKEKIEAYLKKHPDKQKIIFGDQELLDVRKVINTKGDQTNSELFNYFRDKAFPGLSARRIGVFPDLVLDMFINGYYLNVYKTQTTDVNRTYQEKDRRGGIFDAVFTRGVQSKLLTSRHDFKEKNLKEISDLIKKELTEGKALGLSHTYANVRINHVINLWGADFDSNGNLKAIYVTDSDTNASIGMKKYFVGVNSAGKVAISAKEIKEDNIGAQVLGLFTLSTGQDSWNQTNDKTHTCPPCPAPEAAGAPSVFLFPPKPKDTLMISRTPEVTCVVVDVSHEDPEVKFNWYVDGVEVHNAKTKPREEQQNSTYRVVSVLTVLHQDWLNGKEYKCKVSNKALKAPIEKTISKAKGQPREPQVYTLPPSRDELTKNQVSLTCLVKGFYPSDIAVEWESNGQPENNYKTTPPVLDSDGSFFLYSKLTVDKSRWQQGNVFSCSVMHEALHNHYTQKSLSLSPG
Molecule B5 yielded an Enzyme Activity Endpoint Assay: Fab′2 of 0 ng/µL, an Enzyme Activity Endpoint Assay: Fc of 5 ng/µL, an Enzyme Activity Endpoint Assay: IgG of 1030 ng/µL and an Enzyme Activity Endpoint Assay: scIgG of 20 ng/µL.

B6: VRT-21 (Fc fusion)
chain: B5 chain with G41R, N243R, S257A
For the molecule B6, the Enzyme Activity Endpoint Assay: Fab′2 stood at 0 ng/µL, the Enzyme Activity Endpoint Assay: Fc amounted to 6 ng/µL, the Enzyme Activity Endpoint Assay: IgG worked out at 949 ng/µL and the Enzyme Activity Endpoint Assay: scIgG is 11 ng/µL.

B7: VRT-14 (Fc fusion)
chain: SQTEDSESLQRLRDIEDFQAEKKKQNVVYTKWLDGVDVKDHDFRKIVDGNIAYYATPLLNGRGFYDINKDFNRDSDKCAAAVAANMFHYWLDRNRDNVDRFLRQNPEKHGIIELPDGQLKLSDFLNTYESDDGYRDKSKLFDFISNNFNGPVWTDKLLDNYINGYAYNYKYGRTIEDPTKNTSKINFFKEVFNEKILTNNHSIRNQNEFSVLLSEALYTGKAIGLSYGPAGLRHSLGHIISVWGADLDADGNVVAIYVTDSDDKKLTIGDERVGLKRYKISTDDEGRLRLTAYEETHNTGGQIRGLWTLDTGKQAWADYFDKTEQTGTDQAEQDKTHTCPPCPAPEAAGAPSVFLFPPKPKDTLMISRTPEVTCVVVDVSHEDPEVKFNWYVDGVEVHNAKTKPREEQQNSTYRVVSVLTVLHQDWLNGKEYKCKVSNKALKAPIEKTISKAKGQPREPQVYTLPPSRDELTKNQVSLTCLVKGFYPSDIAVEWESNGQPENNYKTTPPVLDSDGSFFLYSKLTVDKSRWQQGNVFSCSVMHEALHNHYTQKSLSLSPG
The molecule B7 displayed an Enzyme Activity Endpoint Assay: Fab′2 of 0 ng/µL, an Enzyme Activity Endpoint Assay: Fc of 4 ng/µL, an Enzyme Activity Endpoint Assay: IgG of 1020 ng/µL and an Enzyme Activity Endpoint Assay: scIgG of 22 ng/µL.

B8: VRT-19 (Fc fusion)
chain: B7 chain with K24M, S75N, R93I, D132H, P178S, G286N, Q314Y
In turn, B8 had an Enzyme Activity Endpoint Assay: Fab′2 of 0 ng/µL, an Enzyme Activity Endpoint Assay: Fc of 54 ng/µL, an Enzyme Activity Endpoint Assay: IgG of 1250 ng/µL and an Enzyme Activity Endpoint Assay: scIgG of 33 ng/µL.

B9: VRT-13 (Fc fusion)
chain: QITSVWTKGVTPPTPEQFRYNNEDVFHAPYTAHQGWYDITKTFDGKDNLLCGAATAGNMLHWWFDQNKTEIEAYLSKHPEKQKIIFNNQELFDLKAAIDTKDSQTNSALFNYFRDKAFPNLSARQLGVMPDLVLDMFINGYYLNVFKTQSTDVNRPYQDKDKRGGIFDAVFTRGDQTTLLTARHDLKNKTLNDISTIIKQELTEGRALALSHTYANVSISHVINLWGADFNAEGNLEAIYVTDSDSNASIGMKKYFVGVNASGKVAISAKKIEGENIGAQVLGLFTLSSGKDIWQKLSDKTHTCPPCPAPEAAGAPSVFLFPPKPKDTLMISRTPEVTCVVVDVSHEDPEVKFNWYVDGVEVHNAKTKPREEQQNSTYRVVSVLTVLHQDWLNGKEYKCKVSNKALKAPIEKTISKAKGQPREPQVYTLPPSRDELTKNQVSLTCLVKGFYPSDIAVEWESNGQPENNYKTTPPVLDSDGSFFLYSKLTVDKSRWQQGNVFSCSVMHEALHNHYTQKSLSLSPG
As for B9, the Enzyme Activity Endpoint Assay: Fab′2 came out at 0 ng/µL, the Enzyme Activity Endpoint Assay: Fc was 97 ng/µL, the Enzyme Activity Endpoint Assay: IgG worked out at 814 ng/µL and the Enzyme Activity Endpoint Assay: scIgG is 42 ng/µL.

Values taken from patent publication US20250027068A1.
